Reference: patent US20220073599A1 (Hoffmann-La Roche, published 2022)
Where a chain is given by its changes, count along the chain named. Values belong to the binder of their own block, whether it stands above or below them.

Tests used:
[1] = target: T1, human Ang2-RBD-muFc (human, UniProt O15123 275-496, limits assumed); assay: KinExA, human ANG2 (Ang2-RBD-muFc) by the table's title; the column's head prints VEGFA-121
T1 construct: also called Human ANG2 (KinExA); not shown: murine Fc (muFc)
T1 sequence: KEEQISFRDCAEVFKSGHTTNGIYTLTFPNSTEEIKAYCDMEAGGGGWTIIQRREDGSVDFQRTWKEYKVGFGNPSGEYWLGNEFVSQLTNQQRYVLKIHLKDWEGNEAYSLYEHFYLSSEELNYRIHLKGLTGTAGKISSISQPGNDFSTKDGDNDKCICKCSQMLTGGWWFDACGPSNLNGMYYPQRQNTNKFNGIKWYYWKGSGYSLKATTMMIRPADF
Protocol: All KinExA® experiments were performed at room temperature (RT) using PBS pH 7.4 with 0.01% BSA and 0.01% Tween® 20 (BioRad, #161-0781) as running buffer. […] A flow rate of 0.25 ml/min was used. A constant amount of Ang2-RBD-muFc (50 pM and in a second experiment 500 pM) was titrated with tested antibody by twofold serial dilution starting at 4 nM (concentration range 1.95 pM-4000 pM). Antigen-antibody complexes were incubated at RT for at least 8 h to allow equilibrium to be reached. Equilibrated mixtures were then drawn through a column of Anti-Ang2 antibody (MAB098) coupled beads in the KinExA® system at a volume of 750 μl for 50 pM constant Ang2 and at a volume of 188 μl for 500 pM constant Ang2 permitting unbound Ang2 to be captured by the beads without perturbing the equilibrium state of the solution. Bound Ang2 was detected using a second biotinylated anti-Ang2 antibody (BAM0981) with a concentration of 250 ng/ml and following by an injection of 250 ng/ml Streptavidin Alexa Fluor™ 647 conjugate in sample buffer. Each sample was measured in duplicates for all equilibrium experiments. The KD was obtained from non-linear regression analysis of the data using a one-site homogeneous binding model contained within the KinExA® software (Version 4.0.11) using the “standard analysis” method. […]

[2] = target: T2, Mouse VEGF-A-121 (mouse, UniProt Q00731-3 27-146); assay: SPR crossreactivity set-up, VEGF-A121-His captured by anti-His antibody, Fab injected, single cycle kinetics
T2 construct: also called mouse VEGF-A121-His; not shown: His tag
T2 sequence (looked up): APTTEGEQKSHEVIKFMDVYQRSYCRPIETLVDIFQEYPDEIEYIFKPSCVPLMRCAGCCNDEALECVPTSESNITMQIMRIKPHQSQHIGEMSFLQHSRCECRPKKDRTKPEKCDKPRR
Protocol: (§1) An anti-His capturing antibody (GE Healthcare 28995056) was immobilized to a Series S Sensor Chip C1 (GE Healthcare BR100535) using standard amine coupling chemistry resulting in a surface density of approximately 600 resonance units (RU). As running and dilution buffer, HBS-P+ (10 mM HEPES, 150 mM NaCl pH 7.4, 0.05% Surfactant P20) was used. […] A dilution series of the tested antibody (3.7-300 nM, 1:3 dilution) was successively injected for 60 s each, dissociation was monitored for 3600 s at a flow rate of 30 μl/min (single cycle kinetics). The surface was regenerated by injecting 10 mM Glycine pH 1.5 for 60 s at a flow of 5 μl/min. […] Curve fitting was performed using the 1:1 Langmuir binding model within the Biacore® evaluation software.
(§2) Crossreactivity to VEGF-A and ANG2 from other species was assessed as described above in “Materials & general methods” section.

[3] = target: T3, human VEGFA-121-His (human, UniProt P15692 181-395); assay: as above
T3 construct: Prepared in-house; not shown: His tag
T3 sequence: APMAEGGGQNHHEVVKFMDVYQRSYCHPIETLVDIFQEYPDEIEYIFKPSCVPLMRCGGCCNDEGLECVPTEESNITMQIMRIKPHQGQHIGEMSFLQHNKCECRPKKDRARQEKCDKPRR
Protocol: as §1, §2

[4] = target: T3, human VEGFA-121-His; assay: SPR, VEGF-A121-His captured by anti-His antibody, Fab injected, single cycle kinetics; marked outside of Biacore specification; exponent as printed
Protocol: as §1
Binding kinetics to human VEGF-A and human ANG2 for the candidate antibodies were assessed as described above using the indicated Fab fragments (amino acid sequence as illustrated in Table 4).

[5] = target: T4, human Ang2-RBD (human, UniProt O15123 275-496, limits assumed); assay: SPR, Fab captured by anti-Fab antibody, Ang2-RBD injected, 25 C
T4 construct: also called Human ANG2 (SPR); Angiopoietin 2-RBD
T4 sequence: T1 sequence
Protocol: An anti-Fab capturing antibody (GE Healthcare 28958325) was immobilized to a Series S Sensor Chip C1 (GE Healthcare BR100535) using standard amine coupling chemistry resulting in a surface density of approximately 800 resonance units (RU). As running and dilution buffer, HBS-P+ (10 mM HEPES, 150 mM NaCl pH 7.4, 0.05% Surfactant P20) was used, the temperature of measurement was 25° C. The tested antibody was captured by injecting a 50 nM solution for 60 sec at a flow of 5 μl/min. Association was measured by injection of human Ang2-RBD in various concentrations in solution for 180 sec at a flow of 30 μl/min (0.07 nM-50 nM, 1:3 dilution). The dissociation phase was monitored for up to 900 sec and triggered by switching from the sample solution to running buffer at a flow rate of 30 μl/min. The surface was regenerated by injection of 10 mM Glycine pH 2.1 for 60 s at a flow rate of 30 μl/min. Bulk refractive index differences were corrected by subtracting blank injections and by subtracting the response obtained from the reference flow cell without captured tested antibody. Curve fitting was performed using the 1:1 Langmuir binding model within the Biacore® evaluation software.

[6] = target: T3, human VEGFA-121-His; assay: SPR, VEGF-A121-His captured by anti-His antibody, Fab injected, single cycle kinetics
Protocol: as §1

[7] = target: T3, human VEGFA-121-His; assay: SPR, VEGF-A121-His captured by anti-His antibody, Fab injected, single cycle kinetics, 1:1 fit
Protocol: as §1

- Kd [1]: ~0.002 nM
- Kd [2]: 0.368 nM
- koff [2]: 0.000183 s⁻¹
- kon [2]: 497000 M⁻¹ s⁻¹
- t1/2 [2]: 1.05 h
- Kd [3]: 0.0455 nM
- koff [3]: 2.21e-05 s⁻¹
- kon [3]: 486000 M⁻¹ s⁻¹
- t1/2 [3]: 8.72 h
- koff [4]: 5.82e-06 s⁻¹
B1: bispecific anti-VEGF-A/anti-ANG2 Fab fragment P1AD9820 (Fab, V domains shown)
VH: SEHLVESGGGLVKPGGSLRLSCATADFFEYDDMSWVRQAPGKGLEWVGSISPKGDHKYLNTKFIGRFTISRDDSKNTLYLQMNSLRAEDTAVYYCARDVGFFDWWGQGTLVTVSS
VL: AIYMHQEPSSLSASVGDRVTITCHGSYWLNSEVAWYQQKPGKAPKLLIFDGDFKVYEVPSRFSGSGSHEDYTLTISSLQPEDFATYYCQQYRYHPYTFGHGTKVEIKR
notes: Bispecific Fab with two paratopes in one VH/VL pair; also called P1AD9820 Fab

- t1/2 [5]: 24 s
- t1/2 [6]: 42.5 h
- kon [7]: 1.66e+06 M⁻¹ s⁻¹
B2: bispecific anti-VEGF-A/anti-ANG2 Fab fragment P1AA8906 (Fab, V domains shown)
VH: DFQLVESGGGLVKPGGSLRLSCAASYEFEYDDMSWVRQAPGKGLEWVGSISPKGGSTYYNTKFIGRFTISRDNSKNTLYLQMNSLRAEDTAVYYCARDVGFFDMWGQGTLVTVSS
VL: B1 VL with N30S, S31N, E32Y, V33L, G51A, D52R, F53W, K54L, Y56H, E57G
notes: Bispecific Fab with two paratopes in one VH/VL pair (DutaFab); CH1 and Ckappa
